From the DeepSol protein solubility set come the findings set out here.

This data set is described as follows: soluble on expression in E. coli; label from the status in PepcDB or PDB records.
Regarding “MNPVEPADLVDIREQLHSGCHIVQAKGFSFLANRIINKELDAKDEKKYRKLLFDCFVVEEDILFRFLIDTLPILLIRGSNSPETLWEEFTLRAPRIRRIQRAFGMMISHCKPSFSKFLDVAARIDSEILTKICISSEFGYNFYQYIAVLSFTGLLSDSQKRLVGNCGLAQNVFLKHQPDLYPTGHESEHDPESFLRECSAEDLLSHPLHNIDPFQRHKLMRDRPAVLESKNLPNHILYLPYAVMLSQYKQVIVKLVEQSKMADHKLASENRVSGCRDTYSFAAPDFSDQDLTFETFMYHTIATGKVTSFIKYVENYHESLGILQKAHLLPALTVFLTHSSTNPSLQERICKLIALFVKKAPENADQFVLYFITLYQKPFFPIHRHLLLETIKDLFVNRFVISSAFGFLKITACLEGDRVRSLECLAEIIPKFTQLFEPMTSLCALKRDDGSDESFYAELHLLKECCKVTEDNEKALSKISNSLKECTGPRLAAIVDAVTDLIKCGVLDTIGARSMLTKRARQRGCEQSLGTYCRLLSTSTIPEENEEQARILRMSCIEELANLKQNDNHTVASEAWRSLGAFELDELEKGLKINPAQFATLFVKLRKEVQNGFIDFLSLCLHKEVESYQRPLYNTSAQDVNVSPLLTKVDTFKDKLIIENKNEPWFWSASLSLSASILQLTGPTNRAQASVRLLQSCLENVVPASSHDEMIRLMAGWRICIREVLHVLTESKSNDILWARDQIINTGRTSLTNKAESVDNIMMMLTALADAIDQQLRNIENDEQVEEVSKAQNPWLLSVYEFVATRLPKNLKEKRVAKNEPIYQLITHSNKSSLLTAIFCLRLLYLNPSVAAFYNDEDVGLTDDRMLVSLLQDSTKELKKEEIPDRKMMWVTAEAYGASQMSAKAFEVAYNIVIDEKTEKYEETELVDDESIEKFFNGLISSPKKDLKEIEQNNKKVLEKLWNNGNNEVRRKIYEGLAELALISGTGRSKMVIPAGKLPEGILKGILQLFDKKINVKPETLRNIIRCLVNHRRNDGRFLPPIDWMKFLERSEWTKADTDARLAMITLACEQNISEVIFHFSSSLTVKELLVLSENLRSVSKLFPRKEFTMILVQMAVQARKEDVETSKKLSMALSDLQKDSTVHNFLMKCLPKLFDISGITDPILNSIKDPDAFGGQISNCFDVWLEARRGEKMNIRRICDIFGKEESNSKKNAICALISHESRTLSRKMRFEKLLDVITASRIARTFGGSMQSFFSIFLSIIVSNNDTVEIPLCWFENQEHVPAMMIAAKQPFYKWIVEAPEMKSNAHHFGSFLSYYVDGPEKQYYEYWHTEGATDLLAMIVSAYPNETFPNLLTQTDEFWKSLLGIADVGK”, the “soluble on expression in E. coli” value is given as “not soluble”.

On to “MNQEDNTGGGGIFGLFKWTKDALFGTDISPSMKYKDQEERRDRSRYAQDDTNFSMKFGNDSNRRSTNLSRSNSWSGLDSTLHRKYELLPEYNENGFNSIVNGDHHSKERIRSLRSPAPIVPREPLRNEPTDTFGHRLHTKRRTINELSNSQIPFIPPQEDDPLLSKLFNKDGVNEVRRSPYKLSVKDIPGKFPSPLTKRDEIDNYYVRDEDACHKNREYKKAYFDLFAQMDLNSRDLEDLCEDVREQREQFHRNEQTYKQAYEEMRAELVNELKKSKTLFENYYSLGQKYKSLKKVLDQTISHEAELATSRERLYQEEDLKNFEIQTLKQRLSDLELKYTNLQIEKDMQRDNYESEIHDLLLQLSLRNNERKDTSAGSNIFSTGQ”, for which the “soluble on expression in E. coli” value is on record as “soluble”.

With “MNQEYLDFELPIAELEAKIEALRAASDDKVDLTDEIKRLQKKSNELTKKTFANLDAWQVSRMARHPNRPYTLDYIEHIFTEFEELAGDRAFADDKAIVGGLARLDGRPVMVIGHQKGRSVKEKVQRNFGMPAPEGYRKALRLMEMAERFKLPIITFIDTPGAYPGIGAEERGQAEAIARNLREMAQLTVPVICTVIGEGGSGGALAIGVGDKVNMLQYSTYSVISPEGCASILWKSAEKASTAAEVMGLTASRLKELNLIDSIVQEPLGGAHRSYLEIAENLKLRLKEDLAELDELSKEELLNRRYERLMSYGYC”, the “soluble on expression in E. coli” value is given as “not soluble”.

In the case of “MNQLINITLNENQEPVVSGRDLHNVLNIKTQYTKWLERMSEYGFEENVDYIAISQKRLTAQGNRTEYIDHVLKLDMAKEIAMLQRNEKSKQVRKYFIQVEKDFNSPEKIMARALLMADKKITNLTMENNQLQLDLKEAQKQARYLDLIIESKGALRVTQIAADYGMSVNKFNKTLLEFGVQHKVNGQWILYKRHMGKGYTDSHTFDYQDKNGHTRANVTTTWTQKGRLFLYELLKDNNILPLIEQEDIV”, the “soluble on expression in E. coli” value is on record as “not soluble”.
